Data: patent US20030165511A1

Target: bacteriophage P2 of Lactococcus lactis
Experiment: cell-based or functional assay

B1: VHH#1 (VHH)
VHH: QVQLQESGGGLVQAGGSLRLSCTASRRTGSNWCMGWFRQLAGKEPELVVALNFDYDMTYYADSVKGRFTVSRDSGKNTVYLQMNSLKPEDTAIYYCAARSGGFSSNRELYDGWGQGTQVTVSS
B1 showed a neutralisation in microtiter acidification assay (lowest effective concentration) of 47 ng/mL and a reduction in the phage titre (plaque titration on L. lactis LM0230) greater than 99%.
